Source: patent publication US20110262445A1 (CEPHALON AUSTRALIA, published 2011)
Each block holds one binder with its values, some of them ahead of it.

What was measured:
human IL-12 [1] = target: T1, human IL-12 (human, UniProt P29460 23-328; P29459 23-219); assay: ELISA, SPR
T1 construct: Recombinant (Peprotech); FLAG-tagged IL-12 in the flow cytometry assays, biotinylated in the IL-12Rβ2 assay; also called hIL-12
T1 sequence 1: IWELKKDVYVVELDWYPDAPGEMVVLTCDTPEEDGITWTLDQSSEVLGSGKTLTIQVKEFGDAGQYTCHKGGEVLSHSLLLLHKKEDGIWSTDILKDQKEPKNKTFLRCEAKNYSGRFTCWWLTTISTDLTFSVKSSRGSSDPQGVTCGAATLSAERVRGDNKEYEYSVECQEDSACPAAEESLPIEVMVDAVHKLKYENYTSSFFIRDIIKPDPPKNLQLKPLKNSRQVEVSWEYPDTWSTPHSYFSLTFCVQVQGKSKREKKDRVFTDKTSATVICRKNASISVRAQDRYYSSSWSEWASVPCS
T1 sequence 2: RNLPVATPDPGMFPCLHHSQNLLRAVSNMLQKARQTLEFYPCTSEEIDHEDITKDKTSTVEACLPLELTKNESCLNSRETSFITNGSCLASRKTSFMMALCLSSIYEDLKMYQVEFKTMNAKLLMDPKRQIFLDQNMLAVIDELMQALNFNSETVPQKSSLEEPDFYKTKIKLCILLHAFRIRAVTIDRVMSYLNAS

human IL-23 [2] = target: T2, human IL-23 (human, UniProt P29460 23-328; Q9NPF7 20-189); assay: ELISA, SPR
T2 construct: Recombinant (Ebioscience); HIS-tagged in flow cytometry, biotinylated in some assays; also called hIL-23; rhIL-23
T2 sequence 1: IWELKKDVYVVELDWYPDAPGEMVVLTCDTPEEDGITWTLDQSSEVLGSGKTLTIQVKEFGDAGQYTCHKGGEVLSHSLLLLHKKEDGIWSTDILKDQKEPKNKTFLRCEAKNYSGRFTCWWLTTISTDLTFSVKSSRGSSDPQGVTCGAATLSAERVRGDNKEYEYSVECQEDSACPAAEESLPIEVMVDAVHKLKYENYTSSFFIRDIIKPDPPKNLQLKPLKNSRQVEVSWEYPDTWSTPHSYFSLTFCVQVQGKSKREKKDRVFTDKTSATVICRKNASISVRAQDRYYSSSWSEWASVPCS
T2 sequence 2: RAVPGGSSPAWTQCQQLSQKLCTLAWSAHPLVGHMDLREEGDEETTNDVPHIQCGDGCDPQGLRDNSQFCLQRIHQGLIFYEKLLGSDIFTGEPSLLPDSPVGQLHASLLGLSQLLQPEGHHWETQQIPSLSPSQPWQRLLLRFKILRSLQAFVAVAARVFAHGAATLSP

human IL-12 [3] = target: T1, human IL-12; assay: SPR, purified scFv
human IL-12 [4] = target: T1, human IL-12; assay: SPR, purified scFv captured via FLAG
Method: (§1) A number of the scFv variants presented in TABLE 4 were selected for full characterization of binding kinetics, encompassing a broad range of mutation profiles and binding affinities. Large-scale protein expressions were carried out for each scFv. The expressed scFvs were purified as monomeric proteins and tested for binding against IL-12 and IL-23 by SPR (TABLE 5).
(§2) Purified scFvs were subjected to full kinetic characterization using a BIAcore T100 biosensor (GE Healthcare). Approximately 10,000 RU of the proprietry FLAG-specific capture molecule was immobilized on a CM5 Series S Sensor chip, using standard amine coupling chemistry in flow cells (FC) 1 and FC2 (or alternatively FC3 and FC4) of the BIAcore T100 Biosensor. The running buffer used was HBS-EP+ (BIAcore) and interactions measured at 30° C. or 35° C. to promote differentiation of scFvs with very similiar kd values. Peak purified FLAG-tagged scFvs (prepared as described in the previous paragraph) were diluted to 10 nM in running buffer, and captured on FC2 at a flow rate of 10 μl/min in order to capture 50 RU of scFv (typically 60 sec was sufficient to capture this level of tagged scFv). After an appropriate stabilization period, the target, IL-12 or IL-23, were passed over FC1 and FC2 at a flow rate of 60 μl/min at concentrations ranging from 81 nM to 0.13 nM (using a five-fold dilution of IL-12) and 81 nM to 1 nM (using a three-fold dilution of IL-23). The contact time for association was 180 sec and dissociation measured for 10 mins for the highest concentration and 300 sec for all other concentrations in the series. The sensorgram data from FC2 was subtracted from FC1 and a buffer only control. The curves were fitted using a 1:1 Langmuir equation to generate the kₐ, kd and KD values.

human IL-23 [5] = target: T2, human IL-23; assay: SPR, purified scFv captured via FLAG
Method: as §1, §2

human IL-23 [6] = target: T2, human IL-23; assay: SPR screen, crude scFv captured via FLAG
In short: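 Crude periplasmic FLAG-tagged scFvs were captured on an anti-FLAG surface (approx. 100 or 50 RU) in HBS-EP+ at 25 °C. IL-23 was injected for 120 s at 30 μl/min, with 200 s dissociation. Referenced sensorgrams were fitted to a 1:1 Langmuir model for ka, kd and KD.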

human IL-23 [7] = target: T2, human IL-23; assay: SPR, purified scFv captured via FLAG; LOD estimated 1 × 10^-5 s^-1
Method: as §1, §2

human IL-12 [8] = target: T1, human IL-12; assay: SPR, IgG
Method: (§3) CU-A6 was converted to Antibody 183, CP-A6 was converted to Antibody 184 and AW-F2 was converted to Antibody 207 by addition of a human heavy chain Fc region (SEQ ID NO: 8) and a constant kappa light chain region (SEQ ID NO: 9). IgG molecules were expressed by co-transfecting the heavy and light chain construct for each antibody into HEK 293E cultures. The expressed IgGs were purified by affinity chromatography and gel exclusion and the resulting monomeric molecules were tested for IL-12 and IL-23 binding by SPR (TABLE 6). All three IgG variants retained binding activity against both analytes with a visible improvement in kd compared to the parental wild-type IgG. Based on this, it is reasonable to expect that scFv variants described in TABLE 4 could be converted to the IgG format and retain improved binding characteristics against IL-12 and IL-23.
(§4) Using a SPR 3000, Protein A was immobilized onto FC1 and FC2 (or alternatively FC3 and FC4) of a CM5 research grade sensor chip using amine coupling, giving approximately […] RU. FC1 was used a blank throughout the experiments. The experiments were run in HBS-P buffer (SPR). At a flow rate of 20 μl/min, 20 μl of 5 μg/mL of antibody was passed over FC2. IL-12, IL-23 or IL-12p40 (Peprotech) were passed over the surface of FC1 and FC2 at concentrations ranging from 66 nM to 2 nM. Regeneration of the surface was performed using 10 mM Glycine, pH 1.0. The sensorgram data from FC2 was subtracted from FC1 and a buffer only control. The curves were fitted using a 1:1 Langmuir equation to generate the kd, ka and KD values. All curves were fitted with a χ² of less then 2.0 where possible.

human IL-23 [9] = target: T2, human IL-23; assay: SPR, IgG
Method: as §3, §4

human IL-23 [10] = target: T2, human IL-23; assay: SPR, IgG; LOD estimated 1 × 10^-5 s^-1

binding result (human IL-12 [1]): binds | binding result (human IL-23 [2]): binds
B1: Antibody 50 (antibody, human IgG1, kappa, V domains shown)
VH: EVQLQQSGADLVRSGASIKLSCTASGFNIKDYYLHWVKQRPEQGLEWIGWIDPENGDTEYAPKFQGKATMTADTSSNTAYLQLSSLTSEDTAVYYCNANKELRYFDVWGAGTTVTVSS
VL: DIVLTQSPATLSVTPGDSVSLSCRASQSISINLHWYQQKSHESPRLLIKFASQSISGIPSRFSGYGSGTDFTLSINSVETEDFGRYFCQQSNSFPLTFGAGTKLELKR
notes: Optimized chimeric antibody (W94F, M34L, C95N)

fold affinity improvement compared to parental scFv-80 (human IL-12 [3]): 5 fold | Kd (human IL-12 [4]): 0.046 nM | koff (human IL-12 [4]): 0.0001 s⁻¹ | kon (human IL-12 [4]): 2.2e+06 M⁻¹ s⁻¹ | kon (human IL-23 [5]): 350000 M⁻¹ s⁻¹ | koff (human IL-23 [6]): 0.00025 s⁻¹ | koff (human IL-23 [7]): < 1e-05 s⁻¹
B2: scFv AW-F2 (scFv)
scFv: QVQLVQSGAEVKKPGASVKVSCKASGYTFTDYYLHWVRQAPGQGLEWMGWIDPENGDTESAPKFQGRVTMTTDTSTSTAYMELRSLRSDDTAVYYCNANKELRYFDVWGQGTMVTVSSGGGGSGGGGSGGGGSEIVMTQSPATLSVSPGERATLSCRASQSISINLHWYQQKPGQAPRLLIYFASQSISGIPARFSGSGSGTEFTLTISSLQSEDFAVYYCQQSNSFPLTFGGGTKVEIKR
notes: scFv-80 variant: VH Y59S; not shown: proprietary C-terminal FLAG tag

Kd (human IL-12 [8]): 0.065 nM | koff (human IL-12 [8]): 0.00027 s⁻¹ | kon (human IL-12 [8]): 4.1e+06 M⁻¹ s⁻¹ | Kd (human IL-23 [9]): ≤ 0.0027 nM | kon (human IL-23 [9]): 400000 M⁻¹ s⁻¹ | koff (human IL-23 [10]): < 1e-05 s⁻¹
B3: Antibody 183 (antibody, human IgG1, kappa, V domains shown)
VH: QVQLVQSGAEVKKPGASVKVSCKASGYTLTDYYLHWVRQAPGQGLEWMGWIDPENGDTEYAPKFQGRVTMTTDTSTSTAYMELRSLRSDDTAVYYCNANKELRYFDVWGQGAMVTVSS
VL: EIVMTQSPATLSVSPGERATLSCRASQSISINLHWYQQKPGQAPRLLIYFASQSISGIPARFFGSGSGTEFTLTISSLQSEDFAVYYCQQSNSFPLTFGGGTKVEIKR
notes: also called CU-A6 as IgG
